Assay results reported in patent US10442850.

Legend:
[1] = biological target: A1/A3-C1-C2 part of thrombin-activated cFVIII-BDD (canine) (UniProt O18806); assay: cell-based or functional assay
[2] = biological target: A1/A3-C1-C2 part of thrombin-activated human FVIII-BDD R1645H (human) (UniProt P00451); assay: cell-based or functional assay
Chain of UniProt P00451 (P00451 20-391, chain 1 of 2): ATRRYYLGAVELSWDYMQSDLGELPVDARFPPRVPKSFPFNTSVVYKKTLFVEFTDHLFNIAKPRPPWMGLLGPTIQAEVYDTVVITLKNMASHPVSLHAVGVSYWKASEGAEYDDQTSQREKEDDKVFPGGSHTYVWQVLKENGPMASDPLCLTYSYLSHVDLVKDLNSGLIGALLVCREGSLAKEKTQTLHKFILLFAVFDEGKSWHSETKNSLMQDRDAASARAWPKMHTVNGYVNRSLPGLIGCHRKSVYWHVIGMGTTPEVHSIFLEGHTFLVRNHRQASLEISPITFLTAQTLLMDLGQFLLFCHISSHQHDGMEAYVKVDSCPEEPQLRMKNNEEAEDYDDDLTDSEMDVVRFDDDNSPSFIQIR
Chain of UniProt P00451 (P00451 1709-2351, chain 2 of 2): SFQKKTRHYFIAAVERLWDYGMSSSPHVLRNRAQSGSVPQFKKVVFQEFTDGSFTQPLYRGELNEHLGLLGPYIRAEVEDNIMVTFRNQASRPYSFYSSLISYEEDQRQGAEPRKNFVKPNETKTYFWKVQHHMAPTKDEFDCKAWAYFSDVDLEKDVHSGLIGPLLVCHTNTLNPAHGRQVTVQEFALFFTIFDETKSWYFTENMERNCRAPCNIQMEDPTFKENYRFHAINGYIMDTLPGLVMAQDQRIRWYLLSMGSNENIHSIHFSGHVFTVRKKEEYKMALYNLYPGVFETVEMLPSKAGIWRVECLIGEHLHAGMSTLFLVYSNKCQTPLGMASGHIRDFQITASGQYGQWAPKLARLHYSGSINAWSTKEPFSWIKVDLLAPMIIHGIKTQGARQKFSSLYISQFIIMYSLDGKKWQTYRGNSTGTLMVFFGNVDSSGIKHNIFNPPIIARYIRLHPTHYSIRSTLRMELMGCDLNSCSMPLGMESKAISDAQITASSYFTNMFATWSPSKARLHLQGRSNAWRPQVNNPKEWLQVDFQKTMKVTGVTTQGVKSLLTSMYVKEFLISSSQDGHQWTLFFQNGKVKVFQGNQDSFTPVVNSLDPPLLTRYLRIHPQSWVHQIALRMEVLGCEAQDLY

Chain of UniProt O18806 (O18806 20-385, chain 1 of 2): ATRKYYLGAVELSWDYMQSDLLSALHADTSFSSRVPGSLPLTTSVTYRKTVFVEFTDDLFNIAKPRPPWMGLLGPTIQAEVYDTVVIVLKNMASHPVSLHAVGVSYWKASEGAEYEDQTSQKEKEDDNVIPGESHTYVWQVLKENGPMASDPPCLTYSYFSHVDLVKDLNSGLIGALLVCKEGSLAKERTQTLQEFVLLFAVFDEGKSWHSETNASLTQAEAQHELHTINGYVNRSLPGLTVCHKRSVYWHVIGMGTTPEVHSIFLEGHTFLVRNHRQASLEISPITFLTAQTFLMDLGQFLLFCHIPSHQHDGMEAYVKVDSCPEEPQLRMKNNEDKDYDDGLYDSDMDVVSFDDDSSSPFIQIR
Chain of UniProt O18806 (O18806 1701-2343, chain 2 of 2): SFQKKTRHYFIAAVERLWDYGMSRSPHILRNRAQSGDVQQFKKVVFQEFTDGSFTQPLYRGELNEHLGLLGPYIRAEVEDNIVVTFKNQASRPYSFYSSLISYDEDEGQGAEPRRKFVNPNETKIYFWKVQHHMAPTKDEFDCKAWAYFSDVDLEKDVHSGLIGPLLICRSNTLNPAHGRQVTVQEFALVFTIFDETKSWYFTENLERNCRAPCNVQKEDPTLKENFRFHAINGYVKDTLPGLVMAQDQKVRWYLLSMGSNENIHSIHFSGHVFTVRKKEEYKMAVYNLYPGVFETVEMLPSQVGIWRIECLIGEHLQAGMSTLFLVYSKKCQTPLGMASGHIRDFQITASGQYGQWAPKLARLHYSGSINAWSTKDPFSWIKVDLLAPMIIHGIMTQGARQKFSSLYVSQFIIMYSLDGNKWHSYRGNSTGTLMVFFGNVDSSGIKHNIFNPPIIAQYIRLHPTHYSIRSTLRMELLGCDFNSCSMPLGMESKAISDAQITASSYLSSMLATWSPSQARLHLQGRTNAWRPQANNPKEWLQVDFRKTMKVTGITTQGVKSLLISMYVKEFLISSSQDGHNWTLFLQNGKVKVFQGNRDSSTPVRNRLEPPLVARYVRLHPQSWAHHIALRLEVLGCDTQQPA

half-life of activated FVIII cofactor activity after thrombin activation (purified component Xase assay or clotting assay) (fold (against hFVIII)) [1]	half-life of activated FVIII (Xase assay, A2-domain stability) (fold (against WT hBFVIII)) [2]	Substance
3	–	A2 domain of thrombin-activated cFVIII-BDD (from UniProt O18806 386-753)
–	3	A2 domain of thrombin-activated human FVIII-BDD R1645H (from UniProt P00451 392-759)
